Results reported in patent publication US20200040039A1 (FUJIFILM, published 2020).
Blank lines part the entries; values can stand above or below the binder they belong to. Positions of bridges follow the written chain, without caps; N, C: chain ends. Non-standard residues stand in square brackets, D forms with d. thiazoline = not defined here

Columns and labels:
[1] = target: T1, MCL-1 (amino acid 1-172 portion) with a His6 tag, MBP and a TEV protease recognition sequence on the N … (UniProt Q07820 1-172); experiment: SPR, Biacore T200, 25 C, Mcl-1 amine-coupled on CM5, peptide as analyte, equilibrium analysis; grade B = KD of 50 µmol/L or more
T1 construct: range 1-172; Expressed in E. coli BL21 (DE3) RIPL, purified on Ni-NTA, dialysed; tags are not reported as removed; Immobilised by amine coupling on a CM5 chip for SPR; A different construct (3xFLAG-tagged, His6/MBP cleaved) was used for panning only; also called target protein; not shown: His6 tag from the pET28a construct; no cleavage is described for this preparation
T1 sequence (Q07820 1-172): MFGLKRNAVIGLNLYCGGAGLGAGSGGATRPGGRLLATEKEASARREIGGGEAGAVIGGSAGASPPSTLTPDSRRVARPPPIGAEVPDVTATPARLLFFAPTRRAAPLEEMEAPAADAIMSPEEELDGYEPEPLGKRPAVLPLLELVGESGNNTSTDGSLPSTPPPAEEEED
Protocol: A buffer obtained by adding dimethylformamide (DMF) or dimethylsulfoxide (DMSO) to a final concentration of 1 vol % to HBS-EP+(manufactured by GE Healthcare Inc.) was used as a running buffer. Mcl-1 was immobilized on a Biacore Sensor Chip Series S Sensor Chip CM5 (manufactured by GE Healthcare Inc.) using an Amine Coupling Kit (manufactured by GE Healthcare Inc.). In order to measure the dissociation constant (KD), each synthetic peptide was added at multiple concentrations to obtain a sensorgram of binding to immobilized Mcl-1.
The analysis of the obtained sensorgram was carried out using T200 evaluation software (manufactured by GE Healthcare Inc.). Solvent correction to DMF or DMSO was carried out, and then the KD was determined by equilibrium value analysis using a sensorgram obtained by subtracting the sensorgram to a flow cell in which Mcl-1 is not immobilized.

[2] = target: T1, MCL-1 (amino acid 1-172 portion) with a …; experiment: SPR, Biacore T200, Mcl-1 immobilised on CM5, peptide as analyte, equilibrium analysis, as for Table 51; grade A = KD of less than 50 µmol/L

Kd [1]: ≥ 50 µM
B1: Cyclic peptide a-5-1 (peptide)
peptide: CRSWACLWPAFLWY[3‑(6-cyanopyridin-2-yl)Ala]-NH2
modifications: bridge N-15 via thiazoline; cysteine pairing not given here; reading uncertain
notes: MS 1957.6 (M+H); Structure itself only in a drawing

Kd [1]: ≥ 50 µM
B2: Cyclic peptide a-5-3 (peptide)
peptide: CFALLWPQFLPLAF[3‑(6-cyanopyridin-2-yl)Ala]-NH2
modifications: bridge N-15 via thiazoline; reading uncertain
notes: MS 1821.3 (M+H); Structure itself only in a drawing

Kd [2]: < 50 µM
B3: Cyclic peptide a-6-1 (peptide)
peptide: CEYCDPTFWPLFRR[3‑(5-cyanothiophen-3-yl)alanine]-NH2
modifications: bridge N-15 via thiazoline; cysteine pairing not given here; reading uncertain
notes: MS 1993.3 (M+H); Structure itself only in a drawing
